This assay concerns the target T1, mouse IL-2Rβ (mouse) (UniProt P16297).
T1 sequence (looked up): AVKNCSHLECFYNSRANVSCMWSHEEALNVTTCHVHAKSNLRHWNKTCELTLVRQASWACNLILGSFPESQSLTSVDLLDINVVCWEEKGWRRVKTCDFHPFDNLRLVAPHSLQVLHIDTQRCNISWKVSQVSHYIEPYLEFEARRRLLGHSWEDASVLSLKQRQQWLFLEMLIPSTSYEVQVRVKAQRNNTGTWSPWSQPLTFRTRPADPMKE
The assay is described as follows: P.E. ELISA, coated protein. On the technique in general: In an ELISA, binding on a coated surface is turned into a signal by an enzyme label.

B1: FJ1427 P035MP02C08 (VHH)
VHH: EVQLVESGGGLVQAGGSLRLSCAASGSTFSRQPMYWFRQAPGKEREFVAAITWSGRGTLYADSVEGRFTISRDNAKNTVYLQMNSLRPDDTAAYYCAAGPYGDAAYRHGRIDSWGQGTQVTVSS
For B1, the P.E. binding ELISA OD is 0.047 OD450 nm.

B2: FJ1427_P035MP02F03 (VHH)
VHH: EVQLVESGGGLVQAGGSLRLSCAASGGTFSSYAMGWFRQAPGKEREFVAATTRGGGRTMYAVSTEGRFTCSRDNAKNTVYLLMNSLKPEDTAVYYCAAMTSYYSGTYYPDSSDFDIWGQGTQVTVSS
Regarding B2, the P.E. binding ELISA OD came out at 0.048 OD450 nm.

B3: FJ1427_P035MP02A06 (VHH)
VHH: QVQLQESGGGLVQAGGSLRLSCAASGGTFSSYAMGWFRQAPGKEREFVAATTRGGGRTMYAVSTEGRFTCSRDNDKNTVYLLMNSLKPKDTAVYYCAAMTSYYSGTYYPDSSDFDIWGQGTQVTVSS
B3 gave a P.E. binding ELISA OD of 0.048 OD450 nm.

B4: FJ1427_P035MP02E04 (VHH)
VHH: EVQLVESGGGLVQAGGSLRLSCAASGGTFSSYAMGWFRQAPGKEREFVAATTRGGGRTMYAVSTEGRFTCSRDNAKNTVYLQMNSLKPKDTAIYYCAAMTSYYSGTYYPDSSDFDIWGQGTQVTVSS
The molecule B4 came in with a P.E. binding ELISA OD of 0.048 OD450 nm.

B5: FJ1427 P035MP02H04 (VHH)
VHH: QVQLVESGGGLVQAGDSLRLSCATSGLTFSSYALGWFRQAPGKKREFVAATTRGGGRTMYAVSTEGRFTCSRDNDKNTVYLLMNSLKPKDTAVYYCAAMTSYYSGTYYPDSSDFDIWGQGTQVTVSS
In the case of B5, the P.E. binding ELISA OD is 0.05 OD450 nm.

B6: FJ1427_P035MP02B04 (VHH)
VHH: EVQLVESGGGLVQAGGSLGLSCAASGGTFSSYAMGWFRQAPGKEREFVAATTRGGGRTMYAVSTEGRFTCSRDNAKNTVYLQMNSLKPKDTAIYYCAAMTSYYSGTYYPDSSDFDIWGQGTQVTVSS
B6 registered a P.E. binding ELISA OD of 0.047 OD450 nm.

B7: FJ1427_P035MP02G03 (VHH)
VHH: QVQLVESGGGLVQPGGSLGLSCAASGFTFSNYAMSWVRQAPGKGLEWVASITGFGRGTDYADSVKGRFTVSRDNAKNTLYLQMNSLKPEDTAVYYCAKYSSSTYYPPTPARGRDYRGQGTQVTVSS
With B7, the P.E. binding ELISA OD turned out to be 0.049 OD450 nm.

B8: FJ1427 P035MP02D05 (VHH)
VHH: QVQLVESGGGLVQPGESLGLSCAASGFTFSNYAMSWVRQAPGKGLEWVSSITGAGRGTDYADSVKGRFTISRDNAKNTLYLQMNSLKPEDTAVYYCAKYSSGTYYPPTPVRGTDYRGQGTQVTVSS
B8: the P.E. binding ELISA OD was 0.049 OD450 nm.

B9: FJ1427_P035MP02C04 (VHH)
VHH: QVQLVESGGGLVQPGGSLELSCAASGFTFSNYAMSWVRQAPGKGLEWVSSITGFGRGTDYADSVKGRFTISRDNDKNTLYLQMNSLKPEDTAVYYCARYSSSTYYPPTPARGRDYRGQGTQVTVSS
B9 yielded a P.E. binding ELISA OD of 0.047 OD450 nm.

B10: FJ1427_P035MP02B06 (VHH)
VHH: QVQLVESGGGLVQPGESLGLSCAASGFTFSNYAMSWVRQAPGKGLEWVSSITGAGRGTDYADSVKGRFTISRDNAKNTLYLQMNSLKPEDTAVYYCAKYSSGTYYPPTPVRGTDYRGQGTQVTVSS
Molecule B10 had a P.E. binding ELISA OD of 0.047 OD450 nm.

B11: FJ1427 P035MP02C06 (VHH)
VHH: QLQLVESGGGLVQPGGSLELSCAASGFTFSNYAMSWVRQAPGKGLEWVSSITGFGRGTDYADSVKGRFTISRDNAKNTLYLQMNSLKPEDTAVYYCARYSSSTYYPPTPARGRDYRGQGTQVTVSS
Turning to B11, the P.E. binding ELISA OD was determined as 0.047 OD450 nm.

B12: FJ1427_P035MP02E03 (VHH)
VHH: EVQLVESGGGSVQTGGSLRLSCVVSGSHFISDVMGWYRQVPGKQRELVADMADGGSVKYGDSVKGRFTILRDSVKNTVTLQMSSLNPEDTGVYYCKAGLWITGRHFDYWGQGTQVTVTS
The molecule B12 displayed a P.E. binding ELISA OD of 0.049 OD450 nm.

B13: FJ1427 P035MP02H05 (VHH)
VHH: EVQLVESGGGSVQTGGSLRLSCVVSGSHFISDVMGWYRQVPGKQRELVADMADGGSAKYGDSVKGRFTILRDSVKNTVTLQMSSLNPEDTGVYYCKAGLWITGRHSDYWGQGTQVTVTS
B13 returned a P.E. binding ELISA OD of 0.049 OD450 nm.

B14: FJ1427 P035MP02A04 (VHH)
VHH: EVQLVESGGGLVQTGGSLRLSCTASGSQFINDVMGWYRQVPGKQRELVADMDDTGSTKYADSVNGRFTILRDSVKNTAYLQMSNLKPEDTGVYYCKAGLWIKGRHSDYWGQGTQVTVSS
In turn, B14 gave a P.E. binding ELISA OD of 0.048 OD450 nm.

B15: FJ1427 P035MP02F04 (VHH)
VHH: EVQLVESGGGLVQTGGSLRLSCAASGSQFINDVMGWYRQVPGKQRELVADMDDTGSTKYADSVKGRFTILRDSVKNTAYLQMSNLKPEDTGVYYCKAGLWIKGRHFDYWGQGTQVTVSS
As for B15, the P.E. binding ELISA OD was found to be 0.048 OD450 nm.

B16: FJ1427_P035MP02A05 (VHH)
VHH: EVQLVESGGGLVQTGGSLRLSCAASGSQFINDVMGWYRQVPGKQRELVADMDDTGSTKYADSVKGRFTILRDSVKNTAYLQMSNLKPEDTGVYYCKAGLWIKGRHSDYWGQGTQVTVSS
Consider B16, for which the P.E. binding ELISA OD amounted to 0.047 OD450 nm.

B17: FJ1427_P035MP02G04 (VHH)
VHH: QVQLVESGGGLVQAGGSLRLSCAASGSQFINDVMGWYRQVPGKQRELVADMDDTGSTKYADSVKGRFTILRDSVKNTAYLQMSNLKPEDTGVYYCKAGLWIKGRHFDYWGQGTQVTVSS
Turning to B17, the P.E. binding ELISA OD amounted to 0.048 OD450 nm.

B18: FJ1427_P035MP02D06 (VHH)
VHH: EVQLVESGGGLVQTGGSLRLSCAASGSQFINDVMGWYRQVPGKQRELVADMDDTGSTKYADSVKGRFTILRDSVKNTAYLQMSNLKPEDTGVYYCKAGLWIKGRHSDYWGQGTQVTVSS
As for B18, the P.E. binding ELISA OD turned out to be 0.047 OD450 nm.

B19: FJ1427 P035MP02G05 (VHH)
VHH: EVQLVESGGGLVQTGGSLRLSCAASGSQFINDVTGWYRQVPGKQRELVADMDDTGSTKYADSVKGRFTILRDSVKNTAYLQMSNLKPEDTGVYYCKAGLWIKGRHSDYWGQGTQVTVSS
In the case of B19, the P.E. binding ELISA OD is 0.048 OD450 nm.

B20: FJ1427_P035MP02B05 (VHH)
VHH: EVQLVESGGGLVQTGGSLRLSCAASGSQFINDVMGWYRQVPGKQRELVADMDDTGSTKYADSVKGRFTILRDSVKNTAYLQMSNLKPEDTGVYYCKAGLWIKGRHFDYWGQGTQVTVSS
B20 had a P.E. binding ELISA OD of 0.048 OD450 nm.

B21: FJ1427_P035MP02D07 (VHH)
VHH: EVQLVESGGGLVQAGGSLRLSCAASGRSLSTTEMGWFRQAPGKEREFVAAITWSGRGTMYAESVEGRFAVSRENAKNTVYLQMNSLKPEDTAIYYCAAARRGRAAVRSEGGYDFWGQGTQVTVSS
B21 gave a P.E. binding ELISA OD of 0.046 OD450 nm.

B22: FJ1427_P035MP02A08 (VHH)
VHH: EVQLVESGGGLVQAGGSLRLSCTVSGDVFVRYTMAWFRQAPGKEREFVATVTDSGRTTEYVDSVKGRFTVSRDNAKNTVYLQMNNLKPEDTAVYYCAANTDYFRIRSLDANTWGQGTQVTVSS
As for B22, the P.E. binding ELISA OD is 0.069 OD450 nm.

B23: FJ1427 P035MP02D08 (VHH)
VHH: EVQLVESGGGLVQAGGSLRLSCVVSGDVFVRYTMAWFRQAPGKEREFVTSITDSGRTTEYVDSVKGRFTVSRDNAKNTVYLQMNNLKPEDTAVYYCAANTDYFRIRSLDANTWGQGTQVTVSS
With B23, the P.E. binding ELISA OD is 0.048 OD450 nm.

B24: FJ1427_P035MP02E08 (VHH)
VHH: EVQLVESGGGLVQAGGSLRLSCVVSGDVFVRYTMAWFRQAPGKEREFVAVVTDSGRTTEYVDSVKGRFTVSRDNAKNTVYLQMNNLKPEDTAVYYCAANTDYFQIRSVDNNAWGQGTQVTVSS
In the case of B24, the P.E. binding ELISA OD amounted to 0.058 OD450 nm.

B25: FJ1427_P035MP02F06 (VHH)
VHH: EVQLVESGGGLVQTGGSLRLSCAASGSRFISDFMGWYRQVPGKQRELVADMADGGSARYGDSVKGRFTILRESGNATAYLQMSSLKPEDTGVYYCKAGLWIAGRHFDYWGQGTQVTVSS
On to B25, for which the P.E. binding ELISA OD was 0.047 OD450 nm.

B26: FJ1427 P035MP02B07 (VHH)
VHH: EVQLVESGGGLVEAGGSLRLSCAASGRAFNNFPMGWFRQAPGKEREFVAAITWISGSTLYADSVKGRFTISRDKSKNTVYLQMSGLKPEDTALYYCAAALKTITRGQHDYTYWGQGTQVTVSS
The molecule B26 registered a P.E. binding ELISA OD of 0.046 OD450 nm.

B27: FJ1427_P035MP02E05 (VHH)
VHH: EVQLVESGGGLVQIGGSLRLSCAASGRTFSSITMAYFRQVPGKEHEWVAGINFSGTRTFYADSVKGRFLISRDDAKSTMYLQMNSLKPEDTAVYYCAASPRGFYGPGNALYDYWGQGTQVTVSS
B27 came in with a P.E. binding ELISA OD of 0.048 OD450 nm.

B28: FJ1427_P035MP02D04 (VHH)
VHH: QVQLVESGGGLVQTGGSLRLSCAVSGSRFISDVMGWYRQVPGKQRELVADMADGGSAKYADSVKGRFSILRDSVKNTVYLQMSSLKPEDTGIYYCKAGLWIAGRHSDYWGQGTQVTVSS
B28 registered a P.E. binding ELISA OD of 0.048 OD450 nm.

B29: FJ1427 P035MP02C05 (VHH)
VHH: QVQLVESGGGLVQTGGSLRLSCAVSGSRFISDVMGWYRQVPGKQRELVADMADGGSAKYADSVKGRFSILRDSVKNTVYLQMSSLKPEDTGIYYCKAGLWIAGRHSDYWGQGTQVTVSS
For the molecule B29, the P.E. binding ELISA OD came to 0.047 OD450 nm.

B30: FJ1427_P035MP02F05 (VHH)
VHH: EVQLVESGGGLVQTGGSLRLSCAVSGSRFISDVMGWYRQVPGKQRELVADMADGGSAKYADSVKGRFSILRDSVKNTVYLQMSSLKPEDTGIYYCKAGLWIAGRHSDYWGQGTQVTVSS
For B30, the P.E. binding ELISA OD was 0.048 OD450 nm.

B31: FJ1427_P035MP02C07 (VHH)
VHH: QVQLVESGGGLVQAGGSLRLSCAASGRTFSINTMGWFRQAPGKEREFVAAISRSGDSTVYVDSVKGRFTISRDNAKNTVYLQMNTLKPEDTAVYYCATTVAVGWTTRWSTIDFDSWGQGTQVTVSS
B31 gave a P.E. binding ELISA OD of 0.046 OD450 nm.

Source of the values: patent publication US20240409645A1.
